In paper doi:10.1101/2024.02.20.581179:

What was measured:
Experiment in all cases: SEC
[1] = target: GST-tagged A. carterae eIF4E-1a (not stated | Amphidinium carterae)
[2] = target: GST-tagged A. carterae eIF4E-1d1 (not stated | Amphidinium carterae)
[3] = target: GST-tagged A. carterae eIF4E-2a (not stated | Amphidinium carterae)
[4] = target: GST-tagged mouse eIF4E-1 (not stated | mouse)

Which stoichiometry N [1] does the source give for GST-tagged A. carterae eIF4E-1a here?
Its stoichiometry N is 2.

For GST-tagged A. carterae eIF4E-1d1, which stoichiometry N [2] is on record?
Its stoichiometry N is 2.

For GST-tagged A. carterae eIF4E-2a, which stoichiometry N [3] is on record?
The stoichiometry N was 2.

With GST-tagged mouse eIF4E-1 as the substance, how does the stoichiometry N [4] read?
Its stoichiometry N is 2.
